Source: patent US20080008712

Legend:
[1] = target: T1, CDC25B3 recombinant protein
T1 chain: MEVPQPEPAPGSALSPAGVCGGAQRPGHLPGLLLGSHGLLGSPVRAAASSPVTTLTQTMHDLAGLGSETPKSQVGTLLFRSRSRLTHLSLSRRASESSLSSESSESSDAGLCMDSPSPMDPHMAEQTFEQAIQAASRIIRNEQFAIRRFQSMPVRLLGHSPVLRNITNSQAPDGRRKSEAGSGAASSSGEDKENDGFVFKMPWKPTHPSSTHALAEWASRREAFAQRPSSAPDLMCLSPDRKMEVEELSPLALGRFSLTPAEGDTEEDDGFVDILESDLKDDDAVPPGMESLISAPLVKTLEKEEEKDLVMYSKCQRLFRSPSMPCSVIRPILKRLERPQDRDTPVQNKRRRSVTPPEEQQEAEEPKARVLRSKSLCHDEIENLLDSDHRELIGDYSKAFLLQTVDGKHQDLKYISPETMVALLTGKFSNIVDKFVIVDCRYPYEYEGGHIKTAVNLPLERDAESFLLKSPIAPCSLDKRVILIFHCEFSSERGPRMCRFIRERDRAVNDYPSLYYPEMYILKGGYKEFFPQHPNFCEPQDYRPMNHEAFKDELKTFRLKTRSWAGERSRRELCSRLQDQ

CDC25B1 = target: T2, CDC25B1
T2 chain: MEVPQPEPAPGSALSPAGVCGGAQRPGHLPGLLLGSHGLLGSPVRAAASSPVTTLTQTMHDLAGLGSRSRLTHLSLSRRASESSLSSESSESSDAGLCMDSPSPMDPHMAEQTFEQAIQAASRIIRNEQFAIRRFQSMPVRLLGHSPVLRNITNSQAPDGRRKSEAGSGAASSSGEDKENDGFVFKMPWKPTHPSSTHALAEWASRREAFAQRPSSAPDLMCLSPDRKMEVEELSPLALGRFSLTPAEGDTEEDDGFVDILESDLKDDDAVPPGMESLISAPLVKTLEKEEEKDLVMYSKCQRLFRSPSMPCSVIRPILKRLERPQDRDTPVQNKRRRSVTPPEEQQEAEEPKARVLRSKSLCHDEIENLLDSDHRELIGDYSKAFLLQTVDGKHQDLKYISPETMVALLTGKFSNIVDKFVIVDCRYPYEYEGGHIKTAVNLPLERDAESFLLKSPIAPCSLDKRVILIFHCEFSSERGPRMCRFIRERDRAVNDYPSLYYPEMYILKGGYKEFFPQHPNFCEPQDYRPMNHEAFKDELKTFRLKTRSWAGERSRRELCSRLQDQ

CDC25B4 = target: T3, CDC25B4
T3 chain: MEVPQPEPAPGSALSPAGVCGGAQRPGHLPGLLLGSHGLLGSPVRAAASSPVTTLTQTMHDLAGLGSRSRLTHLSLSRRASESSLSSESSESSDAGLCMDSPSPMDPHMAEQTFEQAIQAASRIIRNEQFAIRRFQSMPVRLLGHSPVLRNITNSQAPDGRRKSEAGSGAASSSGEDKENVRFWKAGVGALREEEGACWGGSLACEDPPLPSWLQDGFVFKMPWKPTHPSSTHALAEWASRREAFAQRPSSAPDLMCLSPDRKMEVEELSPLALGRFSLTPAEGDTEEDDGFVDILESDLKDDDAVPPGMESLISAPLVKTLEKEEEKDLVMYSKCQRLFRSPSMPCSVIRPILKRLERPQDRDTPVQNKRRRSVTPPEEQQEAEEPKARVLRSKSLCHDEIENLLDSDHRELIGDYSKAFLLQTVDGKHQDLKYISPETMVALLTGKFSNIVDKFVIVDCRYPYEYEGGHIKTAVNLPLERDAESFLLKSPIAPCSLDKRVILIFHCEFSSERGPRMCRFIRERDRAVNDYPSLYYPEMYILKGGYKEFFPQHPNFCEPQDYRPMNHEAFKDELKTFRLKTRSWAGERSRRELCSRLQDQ

CDC25B5 = target: T4, CDC25B5
T4 chain: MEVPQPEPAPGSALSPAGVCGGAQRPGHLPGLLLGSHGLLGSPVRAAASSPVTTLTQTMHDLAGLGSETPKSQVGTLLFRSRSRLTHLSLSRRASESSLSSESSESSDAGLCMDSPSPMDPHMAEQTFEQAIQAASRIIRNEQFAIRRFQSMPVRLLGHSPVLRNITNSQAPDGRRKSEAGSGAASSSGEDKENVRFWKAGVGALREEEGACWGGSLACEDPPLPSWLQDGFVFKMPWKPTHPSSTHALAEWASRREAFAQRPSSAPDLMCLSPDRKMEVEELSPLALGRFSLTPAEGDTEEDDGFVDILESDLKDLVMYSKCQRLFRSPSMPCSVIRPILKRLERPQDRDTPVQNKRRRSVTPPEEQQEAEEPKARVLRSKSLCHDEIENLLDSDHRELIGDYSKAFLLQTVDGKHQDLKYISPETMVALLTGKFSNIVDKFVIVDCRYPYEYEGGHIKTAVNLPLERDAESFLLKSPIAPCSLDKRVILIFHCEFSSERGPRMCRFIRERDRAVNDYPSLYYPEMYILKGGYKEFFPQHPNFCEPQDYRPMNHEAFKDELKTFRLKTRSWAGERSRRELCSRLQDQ

CDC25B2 = target: T5, CDC25B2
T5 chain: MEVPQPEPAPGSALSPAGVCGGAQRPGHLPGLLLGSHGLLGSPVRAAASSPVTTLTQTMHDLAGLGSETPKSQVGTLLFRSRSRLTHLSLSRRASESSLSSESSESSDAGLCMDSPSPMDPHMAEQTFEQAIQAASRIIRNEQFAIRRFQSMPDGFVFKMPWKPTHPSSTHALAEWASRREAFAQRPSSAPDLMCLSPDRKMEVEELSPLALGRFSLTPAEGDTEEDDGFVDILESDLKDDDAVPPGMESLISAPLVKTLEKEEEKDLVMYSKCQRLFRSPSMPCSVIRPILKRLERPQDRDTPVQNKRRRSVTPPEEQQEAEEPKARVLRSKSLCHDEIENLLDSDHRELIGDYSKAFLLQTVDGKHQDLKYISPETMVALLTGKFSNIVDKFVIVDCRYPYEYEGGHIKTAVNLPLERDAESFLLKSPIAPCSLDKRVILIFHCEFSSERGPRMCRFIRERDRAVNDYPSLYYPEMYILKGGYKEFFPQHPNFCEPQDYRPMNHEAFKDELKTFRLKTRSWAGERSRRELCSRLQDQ

B1: recombinant Aurora A kinase (protein)
chain: MDRSKENCISGPVKATAPVGGPKRVLVTQQFPCQNPLPVNSGQAQRVLCPSNSSQRIPLQAQKLVSSHKPVQNQKQKQLQATSVPHPVSRPLNNTQKSKQPLPSAPENNPEEELASKQKNEESKKRQWALEDFEIGRPLGKGKFGNVYLAREKQSKFILALKVLFKAQLEKAGVEHQLRREVEIQSHLRHPNILRLYGYFHDATRVYLILEYAPLGTVYRELQKLSKFDEQRTATYITELANALSYCHSKRVIHRDIKPENLLLGSAGELKIADFGWSVHAPSSRRTTLCGTLDYLPPEMIEGRMHDEKVDLWSLGVLCYEFLVGKPPFEANTYQETYKRISRVEFTFPDFVTEGARDLISRLLKHNPSQRPMLREVLEHPWITANSSKPSNCQNKESASKQS
[1]
  in vitro phosphorylation, MS/MS of the tryptic peptide 353-SVTPPEEQQEAEEPK-367: it is the serine 353 which is phosphorylated by the kinase
CDC25B1
  in vitro phosphorylation: the recombinant Aurora A kinase phosphorylates CDC25B1 on the serine 339
CDC25B4
  in vitro phosphorylation: CDC25B4 on the serine 374
CDC25B5
  in vitro phosphorylation: CDC25B5 on the serine 361
CDC25B2
  in vitro phosphorylation: CDC25B2 on the serine 312
